Experimental data as given in the supplement of paper PMC11865577.

Tests used:
Experiment in all cases: pull-down binding Z-score (relative to library population); higher = stronger binding
[1] = tested on: G-clamp-N3 (biotin conjugate); conditions: RNA library: Library-1 (pre-miRNA loops + repeats)
How it was run: (§1)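 Heat-folded RNA library (1 μg, Cy5 or Cy3 end label, phosphate/NaCl/KCl buffer) was captured for 60 min at 25 °C on streptavidin beads displaying 100 pmol of biotin-conjugated small molecule, then washed three times. The bound fraction, eluted in hot SDS, was hybridised to a DNA barcode microarray at 55.5 °C for 20 h. Z-scores for binding were taken against the library mean and standard deviation after beads-only subtraction and trimmed averaging of replicate barcoded probes.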

[2] = tested on: TO-N3-2 (biotin conjugate); conditions: RNA library: Library-2
How it was run: as §1

TO-N3 (biotin conjugate) = conditions: RNA library: Library-2
How it was run: as §1

[3] = tested on: TO-3-N3-2 (biotin conjugate); conditions: RNA library: Library-2
How it was run: as §1

[4] = tested on: TO-3-N3 (biotin conjugate); conditions: RNA library: Library-2
How it was run: as §1

Sequence | pull-down binding Z-score [1] | pull-down binding Z-score [2] | pull-down binding Z-score (TO-N3 (biotin conjugate)) | pull-down binding Z-score [3] | pull-down binding Z-score [4]
UCUUCCCGGAGUCGGGAAAA [hsa-mir-320a] | 1.85 | -0.901 | -0.187 | -0.307 | -0.0669
GCAUGCCC [hsa-mir-1178] | -0.547 | 0.552 | 0.287 | 0.000996 | 0.196
CCGGCCCGUUAGUUGCCCGGGCCCG [hsa-mir-3181] | -0.29 | 0.914 | -0.422 | -0.397 | -0.57
UGUGCCUUGCCUUUCCUUUGGCACA [hsa-mir-4438] | 0.155 | -0.0304 | -0.0545 | -0.183 | -0.0269
UUGUUCUGAUGUACUACGACAA [hsa-mir-7-3] | -1.28 | -0.186 | -0.672 | -0.294 | -0.716
AGAAAUCAAGCUAUUUGCUAAAAGUUCU [hsa-mir-6844] | -0.369 | -0.0563 | -0.316 | 0.246 | -0.362
CUCUUGAUAGCAGACAU [hsa-mir-4775] | -0.839 | 0.291 | -0.14 | 0.14 | -0.326
UCUUUCAUUUUGGAUUUGACU [hsa-mir-766] | -0.725 | -0.612 | -0.0798 | -0.03 | 0.116
UUUCUGUUGUCUAAAAGAAGAGAAA [hsa-mir-518a-2] | 0.832 | -0.273 | 0.171 | -0.0883 | 0.159
GACGGCGCCCGCCCUGGCCCUGGC [hsa-mir-4745] | 0.486 | 1.96 | 1.16 | 0.0825 | 0.678
GGUUUUUACCAUUAAAACC [hsa-mir-548aw] | -0.37 | -1.44 | -1.01 | -0.448 | -0.656
UAUAUACUGAUGUAAUUUUCCUUGGAUUUAUAUGCAGUACUGAG [hsa-mir-6130] | -0.931 | -0.225 | 0.102 | 0.252 | 0.00904
GGGGCCCUACUUUAAGGGCCCU [hsa-mir-8087] | 1.03 | -0.706 | 0.868 | 0.194 | 0.997
GGCACCUACGAUACCCAGUGCC [hsa-mir-3116-2] | -0.645 | 0.165 | -0.383 | -0.0787 | -0.264
CAAGGGCUCUACUGUCCUUUCAGGAGAGCCCUUG [hsa-mir-4776-2] | 1.19 | -1.37 | -0.597 | -1.02 | -0.245
AGCCACUGCGGUCGACCAUGACCUGGA [hsa-mir-619] | -0.783 | 0.721 | 0.578 | 0.0618 | 0.401
GGACAUCCUUCCAUAGUAAAUAAGCGGUGCC [hsa-mir-8064] | -0.584 | 0.218 | -0.0974 | 0.131 | -0.38
UGCAGUAUCCGCUGUUGCUGCU [hsa-mir-6132] | -1.39 | 0.672 | -0.105 | -0.341 | -0.329
ACAGUUUGAGGGUCUAUGAUACCACCCGGUACAGGAGAUAACUGU [hsa-let-7g] | 0.817 | 0.988 | -0.0397 | -0.136 | -0.508
CCUUGCCUGUGGCAAGACCACUUCGGUUCAAGG [hsa-mir-4295] | 0.54 | 0.237 | 0.0379 | -0.191 | 0.0272
GCCUUGUGGCAUGGAGUUCAAGC [hsa-mir-107] | 0.5 | 1.54 | 0.851 | 0.0909 | 0.468
GAGCUGGGUGGGGUGCCAAGCCU [hsa-mir-6819] | 1.38 | 2.06 | 2.43 | 1.71 | 2.3
GCGGUUUUUGCCAUUACUUUUCAUUUUUACCAUUAAAAGUAAUGGCAAAAAGCAU [hsa-mir-548q] | -0.112 | -0.56 | -1.09 | 0.225 | -0.964
CACCAGCCAGGCAUUGCUCAGCCCGUUUCCCUCUGGGGGAGCAAGGAGUGGUGCUGGGUUUGUC [hsa-mir-593] | -0.156 | 1.24 | 1.15 | -0.0489 | 0.762
CUAUCCUUCCCUUGGAAAAUGAUCUGAG [hsa-mir-4770] | -0.925 | -5.12e-05 | -0.245 | -0.189 | -0.188

Sequence | pull-down binding Z-score [1] | pull-down binding Z-score [2] | pull-down binding Z-score (TO-N3 (biotin conjugate)) | pull-down binding Z-score [3] | pull-down binding Z-score [4]
GAUUAUUGUAAGCAGGAUCCAUUCAAUAAUC [hsa-mir-5188] | -0.228 | -0.703 | -0.366 | -0.383 | -0.19
AGAUGAGGGUGUCGGAUCAACU [hsa-mir-193a] | 1.51 | 0.801 | 0.579 | 0.248 | 0.135
UUUGCCUGUAAAAGUAAUGGCAAA [hsa-mir-548d-1] | -0.646 | -0.552 | -0.702 | -0.105 | -0.488
CAUUUCAGCGUAUAUAUGUAUAUGUGGCUGUG [hsa-mir-19b-2] | 2.71 | 0.0211 | 1.11 | 0.559 | 1.07
CGGGGGGGGCCCGGGGACGGCUUGGGCCUGCCUAGUCGG [hsa-mir-1234] | 1.65 | 2.4 | 2.73 | 1.32 | 2.08
UUGGCCUUUAUUUUCAAUGGCAAG [hsa-mir-548b] | -0.0843 | 0.0975 | 0.349 | -0.117 | 0.655
GAGCCCUUGCACACCACCAGCCUC [hsa-mir-6845] | -1.73 | 0.822 | 0.375 | 0.134 | -0.0477
GUCUGCCAAAACCUUGGCAGAC [hsa-mir-3913-1] | 0.901 | -1.22 | -1.02 | -0.517 | -0.531
GAUUGCUAAUAGUACCAAUC [hsa-mir-34c] | -0.0934 | -0.636 | 0.79 | -0.216 | 0.967
GGGCAGGGAGUCAGAGGGGACCGCCC [hsa-mir-4740] | 2.09 | 1.24 | 1.98 | 1.93 | 2.19
UGUUCAUUCACAUGAUCAUAAGUGGACA [hsa-mir-4643] | 0.373 | -0.251 | 0.388 | 0.169 | 0.535
GGCAGUGGUUCUAAAAGCUGUC [hsa-mir-3618] | 0.498 | 0.117 | 0.603 | -0.198 | 0.861
AAAUCCGUGUUUGGACGCUUCUGGUA [hsa-mir-3936] | -0.453 | 0.681 | 0.923 | 0.653 | 0.678
AUUACUUGUGUUCUAUAUAAAGUAUU [hsa-mir-92a-2] | -0.855 | -0.831 | -0.716 | -0.0463 | -0.393
GGUCAGGUGGUGCCCUCCUUCCAUGGGUAGAGCCAGAGAUGGUGGGUUCUGGCU [hsa-mir-6131] | 0.859 | 2.25 | 1.16 | 0.142 | 0.869
GCUGCCAGGAAAUCCCUAUUUCAUAUAAGAGGGGGCUGGCUGGUUGC [hsa-mir-448] | 1.08 | 0.355 | 0.447 | 0.236 | 0.185
GGGACACAUUUGAGCCAAAUGUCCC [hsa-mir-610] | -0.286 | -0.132 | -0.525 | -0.331 | -0.35
GCCUUUCAACAUAAUGGC [hsa-mir-548w] | 1.21 | -0.827 | -0.352 | -0.214 | -0.0045
UUAUUUGAGAUGAGUUACAUCUUGGAGG [hsa-mir-1204] | -0.564 | -0.536 | -0.0949 | -0.295 | 0.0122
GUGGAAUGCAAAGUCCCAC [hsa-mir-5698] | -0.39 | -0.551 | -0.332 | -0.36 | -0.264
CAUCACUGGAAUGUUCCAGCGACU [hsa-mir-3654] | -0.704 | -0.17 | -0.267 | -0.469 | -0.233
GCCAUGGAAAGUAAUGGC [hsa-mir-548ax] | 0.538 | 0.319 | -0.269 | -0.112 | -0.0453
CACACACAAUCACCAUGUG [hsa-mir-3118-1] | -0.57 | -1.07 | -0.942 | -0.386 | -0.577
GGCACUGGGUAUCGUAGGUGCC [hsa-mir-3116-1] | 2.06 | 0.718 | 0.377 | 0.127 | 0.661
GCCAGACAUGCUCUUGC [hsa-mir-6894] | -1.34 | 0.707 | -0.472 | -0.349 | -0.504

Sequence | pull-down binding Z-score [1] | pull-down binding Z-score [2] | pull-down binding Z-score (TO-N3 (biotin conjugate)) | pull-down binding Z-score [3] | pull-down binding Z-score [4]
UGGGUUAAGCCGAGCUGG [hsa-mir-4507] | 1.25 | 1.05 | 0.872 | 0.297 | 0.478
CUCUGUAGUUUUCUUAUAGUG [hsa-mir-644a] | -0.255 | -0.669 | -0.566 | -0.532 | -0.635
GAAGAAGAAGAAGAAGAAGAAGAAGAAGAAGAAGAAGAAGAAGAAGAA [r(GAA)16] | -1.35 | 3.94 | 3.53 | 3.35 | 1.7
GUUUGCCUGUUAAUGAAUUCAAAC [hsa-mir-3129] | -0.522 | 0.0357 | 0.513 | 0.248 | 0.445
AGGCCGACGAGCAGCGCAUCCUCUUACCCGGCUA [hsa-mir-138-2] | -1.48 | 1.95 | 1.11 | 0.171 | 0.181
UGCUUGACCUGAAUGCUACAAGGCA [hsa-mir-103b-2] | -1.12 | -0.0962 | -0.303 | -0.122 | -0.324
CAGUGAGCUAUGAUCAUGUCCCUG [hsa-mir-1254-2] | 0.526 | 0.362 | 0.105 | -0.1 | 0.0243
CCACUGGGAAUGCUCCCUGAGGACGUUAUAUGAGUG [hsa-mir-4319] | 0.953 | 0.872 | 0.802 | 0.399 | 0.544
GUGACGCCGCGAAGUGCAC [hsa-mir-3147] | 1.18 | 0.997 | 0.406 | 0.172 | 0.25
AGCUUCUUUAUAAGAAGAGGAAACU [hsa-mir-3923] | -0.169 | -0.5 | -0.151 | 0.00803 | 0.147
GCAGCACUGUGCUGGGGAUGUUGC [hsa-mir-1301] | 1.24 | 0.858 | 1.04 | 0.078 | 1.08
GCAGCAGGCACCUGCUUCC [hsa-mir-6868] | -0.816 | 1.49 | 0.984 | 0.16 | 0.367
GGUAAGGUCUUUCAGCC [hsa-mir-7150] | 0.213 | 0.413 | 0.622 | 0.105 | 0.648
CCCAGAGAAAGCCUGAACGUUGGG [hsa-mir-585] | -0.188 | 0.386 | 0.119 | 0.0232 | -0.148
CUUUCUGUUGUCUAAAAGAAAAGAACG [hsa-mir-521-1] | 0.795 | 0.0505 | -0.124 | 0.0499 | -0.211
UUAGCCCAGCAAUGGGAGAGUGCUAA [hsa-mir-4636] | 0.508 | 0.154 | 0.111 | 0.32 | 0.252
GACCAAAAGUCAACAUUAAACAACAAAUCUUGGCC [hsa-mir-5708] | -1.3 | -0.998 | -1.02 | -0.109 | -0.733
UCCAGCUGUGUGAUAUUCUGCUG [hsa-mir-19b-1] | -0.727 | 0.384 | 0.909 | 0.159 | 0.907
AGUGGCCAAUUCCU [hsa-mir-4251] | -0.851 | -0.274 | -0.607 | -0.313 | -0.482
UGGAGUUUUUUUUUCCUCCUG [hsa-mir-4329] | -0.689 | 0.0619 | 0.219 | 0.465 | 0.315
CAUGAGCCCUUUGGAAAGGUCUCGUG [hsa-mir-4711] | -0.633 | -0.478 | 0.16 | -0.105 | 0.395
UUUUUUUCCAAUGAAAAUAACGAAACCUGUUAUUUCCCAUUGAGGGGGAAAAA [hsa-mir-4484] | 0.398 | -0.641 | -1.15 | -0.221 | -1.12
GGCAGGGGGAGCUGCAGGGCUAUGGGAGGGGCCCCAGCGUCUGA [hsa-mir-1233-2_1233-1] | 2.96 | 3.08 | 3.66 | 2.98 | 3.54
